For assay [1], the target named is T1, integrin αVβ3 (UniProt P06756 31-992; P05106 27-718).
T1 construct: Coated on the ELISA plate
Nature of the assay: phage ELISA, integrin coated, anti-M13-HRP. (In general: In an ELISA, binding on a coated surface is turned into a signal by an enzyme label.)

Assay [2] has as its target T2, integrin αVβ5 (UniProt P06756 31-992; P18084 24-719).
T2 construct: Coated on the ELISA plate
Description: phage ELISA, integrin coated, anti-M13-HRP.

For assay [3], the target named is T1, integrin αVβ3. Description: ELISA, integrin coated, anti-MICA-HRP.
Assay [4] deals with T2, integrin αVβ5. Nature of the assay: ELISA, integrin coated, anti-MICA-HRP.
Assay [5] concerns the target T1, integrin αVβ3. Nature of the assay: ELISA, integrin coated, anti-MICA-HRP. This is another data set of the same source.
In assay [6] the target is T2, integrin αVβ5. Nature of the assay: ELISA, integrin coated, anti-MICA-HRP. The source holds these as a separate data set.

Like-named read-outs stand apart in the source and are kept apart here.

T1 sequence (P06756 31-992, chain 1 of 2): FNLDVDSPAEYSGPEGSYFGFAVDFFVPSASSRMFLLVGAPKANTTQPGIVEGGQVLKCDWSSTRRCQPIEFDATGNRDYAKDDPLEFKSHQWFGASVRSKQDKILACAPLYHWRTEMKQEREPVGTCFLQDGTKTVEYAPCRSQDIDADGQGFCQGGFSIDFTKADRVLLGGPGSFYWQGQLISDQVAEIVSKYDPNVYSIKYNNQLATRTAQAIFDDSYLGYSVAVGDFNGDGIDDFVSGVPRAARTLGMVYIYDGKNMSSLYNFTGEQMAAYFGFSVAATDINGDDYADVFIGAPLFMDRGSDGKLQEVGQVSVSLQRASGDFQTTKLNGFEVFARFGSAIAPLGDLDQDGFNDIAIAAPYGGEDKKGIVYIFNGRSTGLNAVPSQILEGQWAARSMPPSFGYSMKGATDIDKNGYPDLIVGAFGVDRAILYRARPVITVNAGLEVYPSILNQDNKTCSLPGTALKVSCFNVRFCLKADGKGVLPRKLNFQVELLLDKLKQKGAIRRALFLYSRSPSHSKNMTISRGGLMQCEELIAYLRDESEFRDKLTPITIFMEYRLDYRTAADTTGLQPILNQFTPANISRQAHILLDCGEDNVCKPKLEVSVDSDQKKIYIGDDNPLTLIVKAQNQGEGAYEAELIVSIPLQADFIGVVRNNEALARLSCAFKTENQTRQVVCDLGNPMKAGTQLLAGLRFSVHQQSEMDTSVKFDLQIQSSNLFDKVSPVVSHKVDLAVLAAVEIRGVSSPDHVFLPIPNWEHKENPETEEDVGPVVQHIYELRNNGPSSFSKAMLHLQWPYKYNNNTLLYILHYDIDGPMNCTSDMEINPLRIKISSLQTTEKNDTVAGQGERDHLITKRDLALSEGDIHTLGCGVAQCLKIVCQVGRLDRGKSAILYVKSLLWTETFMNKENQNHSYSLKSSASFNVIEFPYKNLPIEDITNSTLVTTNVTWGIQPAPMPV
T1 sequence (P05106 27-718, chain 2 of 2): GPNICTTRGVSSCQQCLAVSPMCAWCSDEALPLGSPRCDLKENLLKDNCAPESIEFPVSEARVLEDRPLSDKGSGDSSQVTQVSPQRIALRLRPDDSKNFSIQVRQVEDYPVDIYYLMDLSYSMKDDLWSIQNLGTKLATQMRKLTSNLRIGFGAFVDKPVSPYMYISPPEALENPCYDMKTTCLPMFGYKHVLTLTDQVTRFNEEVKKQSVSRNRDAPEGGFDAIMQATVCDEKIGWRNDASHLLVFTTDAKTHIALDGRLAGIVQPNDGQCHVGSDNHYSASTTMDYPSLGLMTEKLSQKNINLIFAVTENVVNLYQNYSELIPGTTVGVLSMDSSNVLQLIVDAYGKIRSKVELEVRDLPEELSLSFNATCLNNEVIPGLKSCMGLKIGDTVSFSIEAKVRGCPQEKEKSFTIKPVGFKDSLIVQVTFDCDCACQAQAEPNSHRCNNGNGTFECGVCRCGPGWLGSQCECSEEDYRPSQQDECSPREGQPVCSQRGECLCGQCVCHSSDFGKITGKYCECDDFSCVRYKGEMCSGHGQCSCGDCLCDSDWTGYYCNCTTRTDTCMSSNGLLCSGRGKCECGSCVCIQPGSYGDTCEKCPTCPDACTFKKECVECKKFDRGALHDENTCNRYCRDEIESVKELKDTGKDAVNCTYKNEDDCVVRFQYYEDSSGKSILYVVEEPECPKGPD
T2 sequence (P06756 31-992, chain 1 of 2): as the sequence (P06756 31-992, chain 1 of 2) above
T2 sequence (P18084 24-719, chain 2 of 2): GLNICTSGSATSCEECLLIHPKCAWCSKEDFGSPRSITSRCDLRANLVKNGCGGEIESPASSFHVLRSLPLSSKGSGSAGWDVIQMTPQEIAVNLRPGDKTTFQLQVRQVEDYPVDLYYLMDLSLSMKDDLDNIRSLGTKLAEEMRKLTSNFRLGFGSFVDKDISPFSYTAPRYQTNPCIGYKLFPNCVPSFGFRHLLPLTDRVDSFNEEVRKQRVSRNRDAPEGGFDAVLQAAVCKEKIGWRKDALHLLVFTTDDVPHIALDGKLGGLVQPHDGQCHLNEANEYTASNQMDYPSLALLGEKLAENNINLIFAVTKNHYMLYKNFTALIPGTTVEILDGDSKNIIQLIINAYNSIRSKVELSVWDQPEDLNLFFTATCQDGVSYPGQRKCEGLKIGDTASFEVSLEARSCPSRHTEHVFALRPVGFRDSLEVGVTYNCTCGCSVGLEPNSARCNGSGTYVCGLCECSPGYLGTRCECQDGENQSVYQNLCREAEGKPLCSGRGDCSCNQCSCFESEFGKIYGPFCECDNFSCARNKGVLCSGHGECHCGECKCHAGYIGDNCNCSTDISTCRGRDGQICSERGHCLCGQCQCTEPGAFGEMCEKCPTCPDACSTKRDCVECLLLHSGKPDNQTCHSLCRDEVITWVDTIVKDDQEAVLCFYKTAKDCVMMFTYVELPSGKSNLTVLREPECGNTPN

B1: M13 phage pKK94 displaying MICA α3 domain with loop 3.3 in loop 1 (designed binder, not shown: large carriers)
chain: TVPPMVNVTRVPRGDSDLTVTCRASGFYPWNITLSWRQDGVSLSHDTQQWGDVLPDGNGTYQTWVATRICQGEEQRFTCYMEHSGNHSTHPVPSGK
B1: the results for the signal with integrin αVβ3 [1] and with integrin αVβ5 [2] were 1.07 OD and 2.84 OD, respectively.

B2: M13 phage pKK95 displaying MICA α3 domain with loop 3.4 in loop 1 (designed binder, not shown: large carriers)
chain: TVPPMVNVTRSARGDSDHRVTCRASGFYPWNITLSWRQDGVSLSHDTQQWGDVLPDGNGTYQTWVATRICQGEEQRFTCYMEHSGNHSTHPVPSGK
For the molecule B2, the results for the signal with integrin αVβ3 [1] and in the assay with integrin αVβ5 [2] were 0.345 OD and 0.232 OD, respectively.

B3: M13 phage pKK106 displaying wild type MICA α3 domain fused to pIII (other)
chain: TVPPMVNVTRSEASEGNITVTCRASGFYPWNITLSWRQDGVSLSHDTQQWGDVLPDGNGTYQTWVATRICQGEEQRFTCYMEHSGNHSTHPVPSGK
notes: also called WT; not shown: M13 phage capsid protein pIII, C-terminal portion, fused at codon position 198
B3: the signal with integrin αVβ3 [1] and with integrin αVβ5 [2] was 0 OD in each case.

B4: M13 phage pKK98 displaying MICA α3 domain with loop 5.3 in loop 1 (designed binder, not shown: large carriers)
chain: TVPPMVNVTHLARGDDLTYVTCRASGFYPWNITLSWRQDGVSLSHDTQQWGDVLPDGNGTYQTWVATRICQGEEQRFTCYMEHSGNHSTHPVPSGK
Take B4: the signal came out at 1.22 OD in the assay with integrin αVβ3 [1] and 1.48 OD with integrin αVβ5 [2].

B5: M13 phage pKK96 displaying MICA α3 domain with loop 5.1 in loop 1 (designed binder, not shown: large carriers)
chain: TVPPMVNVTVTRGDTFTQSVTCRASGFYPWNITLSWRQDGVSLSHDTQQWGDVLPDGNGTYQTWVATRICQGEEQRFTCYMEHSGNHSTHPVPSGK
As for B5, the signal was determined as 1.64 OD with integrin αVβ3 [1] and 2.42 OD in the assay with integrin αVβ5 [2].

B6: M13 phage pKK136 displaying MICA α3 domain with extended 5.1sp in loop 1 and extended 3.2sp in loop 3 (designed binder, not shown: large carriers)
chain: TVPPMVNVTSGGSGGGSVTRGDTFTQSSGGSGGGVTCRASGFYPWNITLSWRQDGVSLSHDTQQWGDVLPDGNGTYQTWVATRISGGSGGGSTSRGDHPRTQSGGSGGGCYMEHSGNHSTHPVPSGK
Consider B6, for which the signal with integrin αVβ3 [1] came out at 2.46 OD; with integrin αVβ5 [2] it was 4.28 OD.

B7: M13 phage pKK138 displaying MICA α3 domain with extended 5.1sp in loop 1 and extended 5.3sp in loop 3 (designed binder, not shown: large carriers)
chain: TVPPMVNVTSGGSGGGSVTRGDTFTQSSGGSGGGVTCRASGFYPWNITLSWRQDGVSLSHDTQQWGDVLPDGNGTYQTWVATRISGGSGGGSHLARGDDLTYSGGSGGGCYMEHSGNHSTHPVPSGK
B7: the signal came out at 0.886 OD in the assay with integrin αVβ3 [1] and 2.75 OD with integrin αVβ5 [2].

B8: M13 phage pKK139 displaying MICA α3 domain with extended 5.1sp in loop 1 and extended 5.1spNH in loop 3 (designed binder, not shown: large carriers)
chain: TVPPMVNVTSGGSGGGSVTRGDTFTQSSGGSGGGVTCRASGFYPWNITLSWRQDGVSLSHDTQQWGDVLPDGNGTYQTWVATRISGGSGGGSVTRGDTFTQSSGGSGGGCYMEHSGNHSTHPVPSGK
On to B8, for which the signal worked out at 2.48 OD with integrin αVβ3 [1] and 5.36 OD with integrin αVβ5 [2].

B9: M13 phage pKK107 displaying MICA α3 domain with tight T-3.1 in loop 1 (designed binder, not shown: large carriers)
chain: TVPPMVNTSRGDHPRTQCRASGFYPWNITLSWRQDGVSLSHDTQQWGDVLPDGNGTYQTWVATRICQGEEQRFTCYMEHSGNHSTHPVPSGK
Turning to B9, the signal with integrin αVβ3 [1] is 0.999 OD; in the assay with integrin αVβ5 [2] it was 1.49 OD.

B10: M13 phage pKK109 displaying MICA α3 domain with tight T-3.3 in loop 1 (designed binder, not shown: large carriers)
chain: TVPPMVNRVPRGDSDLTCRASGFYPWNITLSWRQDGVSLSHDTQQWGDVLPDGNGTYQTWVATRICQGEEQRFTCYMEHSGNHSTHPVPSGK
For B10, the signal came to 0.23 OD with integrin αVβ3 [1] and 0.167 OD with integrin αVβ5 [2].

B11: M13 phage pKK111 displaying MICA α3 domain with tight T-5.3 in loop 1 (designed binder, not shown: large carriers)
chain: TVPPMVNHLARGDDLTYCRASGFYPWNITLSWRQDGVSLSHDTQQWGDVLPDGNGTYQTWVATRICQGEEQRFTCYMEHSGNHSTHPVPSGK
Turning to B11, the signal is 0.707 OD in the assay with integrin αVβ3 [1] and 0.657 OD with integrin αVβ5 [2].

B12: M13 phage pKK110 displaying MICA α3 domain with tight T-5.1 in loop 1 (designed binder, not shown: large carriers)
chain: TVPPMVNVTRGDTFTQSCRASGFYPWNITLSWRQDGVSLSHDTQQWGDVLPDGNGTYQTWVATRICQGEEQRFTCYMEHSGNHSTHPVPSGK
B12: the signal with integrin αVβ3 [1] is 1.49 OD; in the assay with integrin αVβ5 [2] it was 2.56 OD.

B13: M13 phage pKK108 displaying MICA α3 domain with tight T-3.5 in loop 1 (designed binder)
chain: TVPPMVNGSRGDSLIMHCRASGFYPWNITLSWRQDGVSLSHDTQQWGDVLPDGNGTYQTWVATRICQGEEQRFTCYMEHSGNHSTHPVPSGK
notes: α3 amplified from pKK53; also called 1-T-3.5; not shown: M13 phage capsid protein pIII, C-terminal portion, fused at codon position 198
As to B13, the signal in the assay with integrin αVβ3 [1] is -0.09 OD; with integrin αVβ5 [2] it was -0.204 OD.

B14: M13 phage pKK100 displaying MICA α3 domain with extended loop 3.2sp in loop 1 (designed binder, not shown: large carriers)
chain: TVPPMVNVTSGGSGGGSTSRGDHPRTQSGGSGGGVTCRASGFYPWNITLSWRQDGVSLSHDTQQWGDVLPDGNGTYQTWVATRICQGEEQRFTCYMEHSGNHSTHPVPSGK
Regarding B14, the signal stood at 0.201 OD in the assay with integrin αVβ3 [1] and 0.186 OD in the assay with integrin αVβ5 [2].

B15: M13 phage pKK103 displaying MICA α3 domain with extended loop 5.3sp in loop 1 (designed binder, not shown: large carriers)
chain: TVPPMVNVTSGGSGGGSHLARGDDLTYSGGSGGGVTCRASGFYPWNITLSWRQDGVSLSHDTQQWGDVLPDGNGTYQTWVATRICQGEEQRFTCYMEHSGNHSTHPVPSGK
For B15, the signal stood at 0.688 OD in the assay with integrin αVβ3 [1], 0.587 OD with integrin αVβ3 [1] (record 2), 0.491 OD with integrin αVβ5 [2] and 0.814 OD with integrin αVβ5 [2] (record 2).

B16: M13 phage pKK101 displaying MICA α3 domain with extended loop 3.3sp in loop 1 (designed binder, not shown: large carriers)
chain: TVPPMVNVTSGGSGGGSRVPRGDSDLTSGGSGGGVTCRASGFYPWNITLSWRQDGVSLSHDTQQWGDVLPDGNGTYQTWVATRICQGEEQRFTCYMEHSGNHSTHPVPSGK
B16: the signal is 1.49 OD with integrin αVβ3 [1] and 1.23 OD in the assay with integrin αVβ5 [2].

B17: M13 phage pKK102 displaying MICA α3 domain with extended loop 5.1sp in loop 1 (designed binder, not shown: large carriers)
chain: TVPPMVNVTSGGSGGGSVTRGDTFTQSSGGSGGGVTCRASGFYPWNITLSWRQDGVSLSHDTQQWGDVLPDGNGTYQTWVATRICQGEEQRFTCYMEHSGNHSTHPVPSGK
B17: the signal with integrin αVβ3 [1] was found to be 1.02 OD; in the assay with integrin αVβ3 [1] (record 2), 1.45 OD; in the assay with integrin αVβ5 [2] it was 0.771 OD; with integrin αVβ5 [2] (record 2), 1.5 OD.

B18: M13 phage pKK112 displaying MICA α3 domain with tight T-AMY (loop 1 from tendamistat) in loop 1 (designed binder, not shown: large carriers)
chain: TVPPMVNYQSWRYSQCRASGFYPWNITLSWRQDGVSLSHDTQQWGDVLPDGNGTYQTWVATRICQGEEQRFTCYMEHSGNHSTHPVPSGK
For B18, the signal amounted to 0.46 OD with integrin αVβ3 [1] and 0.515 OD with integrin αVβ5 [2].

B19: M13 phage pKK104 displaying MICA α3 domain with extended loop 3.2sp in loop 3 (designed binder, not shown: large carriers)
chain: TVPPMVNVTRSEASEGNITVTCRASGFYPWNITLSWRQDGVSLSHDTQQWGDVLPDGNGTYQTWVATRISGGSGGGSTSRGDHPRTQSGGSGGGCYMEHSGNHSTHPVPSGK
B19: the signal was 0.791 OD in the assay with integrin αVβ3 [1] and 1.12 OD in the assay with integrin αVβ5 [2].

B20: M13 phage pKK105 displaying MICA α3 domain with extended loop 3.3sp in loop 3 (designed binder, not shown: large carriers)
chain: TVPPMVNVTRSEASEGNITVTCRASGFYPWNITLSWRQDGVSLSHDTQQWGDVLPDGNGTYQTWVATRISGGSGGGSRVPRGDSDLTSGGSGGGCYMEHSGNHSTHPVPSGK
With B20, the signal is 1.33 OD with integrin αVβ3 [1] and 1.11 OD in the assay with integrin αVβ5 [2].

B21: M13 phage pKK93 displaying MICA α3 domain with loop 3.2 in loop 1 (designed binder, not shown: large carriers)
chain: TVPPMVNVTRTSRGDHPRTQVTCRASGFYPWNITLSWRQDGVSLSHDTQQWGDVLPDGNGTYQTWVATRICQGEEQRFTCYMEHSGNHSTHPVPSGK
Regarding B21, the signal with integrin αVβ3 [1] worked out at 0.284 OD; with integrin αVβ3 [1] (record 2) it was 0.616 OD; with integrin αVβ5 [2], 0.291 OD; with integrin αVβ5 [2] (record 2), 0.774 OD.

B22: M13 phage pKK97 displaying MICA α3 domain with loop 5.2 in loop 1 (designed binder, not shown: large carriers)
chain: TVPPMVNVTRGDTFTQSVTCRASGFYPWNITLSWRQDGVSLSHDTQQWGDVLPDGNGTYQTWVATRICQGEEQRFTCYMEHSGNHSTHPVPSGK
Take B22: the signal in the assay with integrin αVβ3 [1] was determined as 1.55 OD; with integrin αVβ5 [2], 2.59 OD.

B23: M13 phage pKK92 displaying MICA α3 domain with loop 3.1 in loop 1 (designed binder, not shown: large carriers)
chain: TVPPMVNVTSRGDHPRTQVTCRASGFYPWNITLSWRQDGVSLSHDTQQWGDVLPDGNGTYQTWVATRICQGEEQRFTCYMEHSGNHSTHPVPSGK
In the case of B23, the signal was 0.858 OD in the assay with integrin αVβ3 [1] and 1.32 OD in the assay with integrin αVβ5 [2].

B24: soluble MICA generated by pKK46 (extended loop 5.1sp in loop 1) (designed binder)
chain: HHHHHHEPHSLRYNLTVLSWDGSVQSGFLTEVHLDGQPFLRCDRQKCRAKPQGQWAEDVLGNKTWDRETRDLTGNGKDLRMTLAHIKDQKEGLHSLQEIRVCEIHEDNSTRSSQHFYYDGELFLSQNLETEEWTMPQSSRAQTLAMNVRNFLKEDAMKTKTHYHAMHADCLQELRRYLKSGVVLRRTVPPMVNVTSGGSGGGSVTRGDTFTQSSGGSGGGVTCRASGFYPWNITLSWRQDGVSLSHDTQQWGDVLPDGNGTYQTWVATRICQGEEQRFTCYMEHSGNHSTHPVPSGK
For B24, the signal was determined as 0.384 OD with integrin αVβ3 [3], 1.06 OD in the assay with integrin αVβ5 [4], 0.467 OD with integrin αVβ3 [5] and 0.66 OD in the assay with integrin αVβ5 [6]. The signal/ng with integrin αVβ3 [3] turned out to be 9.2 signal/ng; in the assay with integrin αVβ5 [4] it was 25.5 signal/ng; in the assay with integrin αVβ3 [5] it was 9.42 signal/ng; with integrin αVβ5 [6] it was 13.3 signal/ng.
